The data set in a line: yeast display, Sf9 membrane polyspecificity reagent, FACS + sequencing; frameworks hold sequencing errors. The gist of the method:
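Polyreactivity labels are assigned by the sorting gate from which each nanobody was recovered. The gates were low and high (top ~1%), set on anti-HA fluorescence for expression and streptavidin fluorescence for reagent binding. Before sorting, galactose-induced (36–48 hours) yeast display cells were stained for 1 hour at 4 °C with 10% biotinylated, detergent-solubilized Sf9 membrane reagent.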
Turning to “QVQLVESGGGLVQAGGSLRLSCAASGSTLYGYAMGWYRQAPGKVRELVAAISSRAVRTYYADSVKGRFTISRDNAKNTVYLHMNSLKPEDTAVYYCAAKRSYAYEYWGQGTQVTVSS”, the “polyreactivity (PSR sort gate)” value was “high polyreactivity”.

As for “QVQLVESGGGLVQAGGSLRLSCAASGSTLYKYAMGWYRQSPGKERELVAAISWSGSSTYYADSVKGRFTISRDNAKNTVYLQMNSLKPVDTAVYYCAAYPRPYIGYTDVYVWYEFDYWGQGTQVTVSS”, the “polyreactivity (PSR sort gate)” value is on record as “low polyreactivity”.

Turning to “QVQLVESGGGLVQAGGSLRLSCAASGSTLYNNAMGWYRQAPGKERELVAAITRRGGSTYYADSVKGRFTISRDNAKNTVYLQMNSLNPEDTAVYFCAADDSRYASGQFQEEYDYWGLGTQVTVSS”, the “polyreactivity (PSR sort gate)” value was “low polyreactivity”.

Turning to “QVQLVESGGGLVQAGGSLRLSCAASGSTLYRYAMGWYRQAPGKERELVAAISSSGGSTYYADSVKGRFTISRDNAKNTVYLQMNSLKPEDTAVYYCAATSSFYFILYDYWGQGTQVTVSS”, the “polyreactivity (PSR sort gate)” value was “high polyreactivity”.

For the sequence “QVQLVESGGGLVQAGGSLRLSCAASGSTLYRYAMGWYRQAPGQERELFATIRSGVNTNYADSVKGRFTISRDNAKNTVYLQMNSLKPEDTAVYYCNARTVYGVYWGRYDYWGQGTQVTVSS”, the “polyreactivity (PSR sort gate)” value was “high polyreactivity”.

For the sequence “QVQLVESGGGLVQAGGSLRLSCAASGSTLYSYAMGWYRQAPGKEREFVAAITSDDGSTYYADSVKGRFTISRDNAKNTVYLQMNSLKPEDTAVYYCATAASVEYNYWGQGTQVTVSS”, the “polyreactivity (PSR sort gate)” value is “low polyreactivity”.

As for “QVQLVESGGGLVQAGGSLRLSCAASGSTLYYNAMGWYRQAPGKERELVAAITSGGSTSYADSVKGRFTISRDNAKNTVYLQMNSLKPEDTAVYYCAAVFYRRFDYWGQGTQVTVSS”, the “polyreactivity (PSR sort gate)” value is on record as “low polyreactivity”.

With “QVQLVESGGGLVQAGGSLRLSCAASGSTLYYYTMGWYRQAPGKERELVAAINWSGTITYYADSVKGRFTISRDNAKNTVYLQMNSLKPEDTAVYYCNAVYYRQGFDYWGQGTQVTVSS”, the “polyreactivity (PSR sort gate)” value was “high polyreactivity”.

“QVQLVESGGGLVQAGGSLRLSCAASGSTMRFYAMGWYRQAPGKERELVAAISSSGSSTYYADSVKGRFTISRDNAKNTVYLQMNSLKPEDTAVYYCSGYGYWGQGTQLTVSS”: the “polyreactivity (PSR sort gate)” value is reported as “high polyreactivity”.

Regarding “QVQLVESGGGLVQAGGSLRLSCAASGSTQFGYAIGWYRQAPGKEREFVAAITSGGNTYYADSVKGRFTISLDNAKYTVYLQMNSLKPEDTAVFYCNKRYRSFAARLRGYDYWGQGTQVTVSS”, the “polyreactivity (PSR sort gate)” value is on record as “high polyreactivity”.

As for “QVQLVESGGGLVQAGGSLRLSCAASGSTQKYAMGWYRQAPGKERELVAAIRRTGGSTYYADSVKGRFTISRDNAKNTVYLQMNSLKPEDTAVYYCAADPYNYYVSGYDYWGQVTQVTVSS”, the “polyreactivity (PSR sort gate)” value is recorded as “low polyreactivity”.

In the case of “QVQLVESGGGLVQAGGSLRLSCAASGSTQTVNVMGWYRQAPGKEREFVAAINDSGSTYYADSVKGRFTISRDNAKNTVYLQMNSLKPEDTAVYYCATYYWLGLSLYDYWGQGTQVTVSS”, the “polyreactivity (PSR sort gate)” value is recorded as “low polyreactivity”.

In the case of “QVQLVESGGGLVQAGGSLRLSCAASGSTRRYYAMGWYRQAPGKERELVAAITRLGSTNYADSVKGRFTISRDNAKNTVYLQMNSLKPEDTAVYYCNTRWRYRPYRYRGDGGDYWAQGTQVTVSS”, the “polyreactivity (PSR sort gate)” value is reported as “high polyreactivity”.

With “QVQLVESGGGLVQAGGSLRLSCAASGSTSAPNAMGWYRQAPGKERELVAAISWTGGSTSYADSVKGRFTISRDNAKNTVYLQMNSLKPPDTAVYYCAKRSYGLTRAYSAGNYWGQGTQVTVSS”, the “polyreactivity (PSR sort gate)” value is “low polyreactivity”.

In the case of “QVQLVESGGGLVQAGGSLRLSCAASGSTSASYAMGWYRKAPGKERELVAAISGRGTTTYYADSVKGRFTISRDIAKNSVYLQMNSLKPEDTAVYYCAVYRRGGVEAFLYWGQGTQVTVSS”, the “polyreactivity (PSR sort gate)” value was “high polyreactivity”.

For the sequence “QVQLVESGGGLVQAGGSLRLSCAASGSTSDINAMGWYRQAPGKERELVAAITSRSGSTYYADSVKGRFTISRDNAKNTVYLQMNSLKPEDTAVYYCAAEYVRFYWYTSDYWGQGTQVTVSS”, the “polyreactivity (PSR sort gate)” value is reported as “low polyreactivity”.

For “QVQLVESGGGLVQAGGSLRLSCAASGSTSDLYAMGWYRQAPGKERELVAAITWSGDSTYYADSVKGRFTISRDNAKNTVYLQMNSLKPEDTAVYYCNAEYYDYFDYESDYWGQGTQVTVSS”, the “polyreactivity (PSR sort gate)” value is “low polyreactivity”.

For “QVQLVESGGGLVQAGGSLRLSCAASGSTSDTNVMGWYRQPPAKERELVAAISNDDDRTYYADSVKGRFTSSRDNAKNTVYLQMNSVKPEDTAVYYCATADDYPGDDYLEGGYWGQGTQVTVSS”, the “polyreactivity (PSR sort gate)” value was “low polyreactivity”.

For “QVQLVESGGGLVQAGGSLRLSCAASGSTSGSYAMGWYRQAPGKERELVATISWSGGRTYYADSVKGRFTISRDNAKNTVYLQMNSLKPEDTAVYYCAARRYAFRYYGYDYWGQGTQVTVSS”, the “polyreactivity (PSR sort gate)” value is on record as “high polyreactivity”.

With “QVQLVESGGGLVQAGGSLRLSCAASGSTSLYNMGWSRQAPGKERELVAAIDSGSTNYADSVKGRFTISRDNAKNTVYLQMNSLKPEDTAVYYCAADGTNIGVYDRASYRDDYWGQGTQVTVSS”, the “polyreactivity (PSR sort gate)” value is “low polyreactivity”.

In the case of “QVQLVESGGGLVQAGGSLRLSCAASGSTSNTMTWDGIDRRLGKKGSWLPPITVSGGGTYYADSVKGRFTISRDNANNTVYLQMNSLKPEDTAVYYCATEYELAIYGDDYWGQGTQVTVSS”, the “polyreactivity (PSR sort gate)” value is listed as “low polyreactivity”.

Take “QVQLVESGGGLVQAGGSLRLSCAASGSTSPINAMRWYRQAPGKERELVAVISSSGGRTYYADSVKGRFTISRDNAKNTVYLQMNSLKPEDTAVYYFDKRFSRRQPDYDYWGQGTQVTVSS”: the “polyreactivity (PSR sort gate)” value is “high polyreactivity”.

As for “QVQLVESGGGLVQAGGSLRLSCAASGSTSQTYAMGWYRQAPGKERELVASMTRSGVRTYYADSVKGRFTISRDNAKYTVYLQMNSLKPEDTAVYYCAAKYSYGFYRTGYYWGQGTQVTVSS”, the “polyreactivity (PSR sort gate)” value is given as “high polyreactivity”.

In the case of “QVQLVESGGGLVQAGGSLRLSCAASGSTSQYYAMGWYRQAPGKERELVAVISWSGGSTYYADSVKARFTISRDNAKNTVYLEMNSLKPEDTAVYYCAARYRRRVIATRDYWGQGTQVTVSS”, the “polyreactivity (PSR sort gate)” value is reported as “high polyreactivity”.

Take “QVQLVESGGGLVQAGGSLRLSCAASGSTSSLYTMGWYKQAPGKERELVAAITVSGSRTYYADSVKGRFTISRDNAKNTVYLQMNSLKPEDTAVYYCNAYPYYLVRNMDSWGQGTQVTVSS”: the “polyreactivity (PSR sort gate)” value is reported as “high polyreactivity”.

For the sequence “QVQLVESGGGLVQAGGSLRLSCAASGSTSVPYTMGWYRQAPGKERELVAAISSSGGTTNYADSVKGRFTISRDNAKNTVYLQMNSLKPEDTAVYYCAAEYYQWVAYSWNEMYYWGQGTQVTVSS”, the “polyreactivity (PSR sort gate)” value is “low polyreactivity”.

For “QVQLVESGGGLVQAGGSLRLSCAASGSTSVQYAKGWYRQAPGKERELVAAIDRSGGSTSYADSVKGRFTISRDNAKNTVYLQMNSLKPEDTAVYYCNADPVRSTYSYDYWGLGTQVTVSS”, the “polyreactivity (PSR sort gate)” value is “low polyreactivity”.

As for “QVQLVESGGGLVQAGGSLRLSCAASGSTSVQYAMGWYRQAPGKERELVAAIDRSGGSTSYADSVKGRFTISRDNAKNTVYLQMNSLKPEDTAVYYCNADPVRSTYSYDYWGQGTQVTVSS”, the “polyreactivity (PSR sort gate)” value is on record as “low polyreactivity”.

Regarding “QVQLVESGGGLVQAGGSLRLSCAASGSTSVQYAMGWYRQAPGKERELVAAIDRSGGSTSYADSVKGRFTISRYNAKNTVYLQMNSLKPEDTAVYYCNADPVRSTYSYDYWGQGTQVTVSS”, the “polyreactivity (PSR sort gate)” value is reported as “low polyreactivity”.

For “QVQLVESGGGLVQAGGSLRLSCAASGSTSVVNAMGWYRQAPGKERELVATITRSAGRTYYADSVKGRFTISRDNAKNTVYLQMNSLKPEDTAVSYCAKDTDISTHHSKGRAKSRYDYWGQGTQVTVSS”, the “polyreactivity (PSR sort gate)” value is reported as “low polyreactivity”.

As for “QVQLVESGGGLVQAGGSLRLSCAASGSTSWSYAMGWYRQAPGKERELVAAITRTGSTNYADSVKGRFTISRDNAKNTVYLQMNSLKPEDTAVYYCVYATLRYDYWGQGTQVTVSS”, the “polyreactivity (PSR sort gate)” value was “low polyreactivity”.

Regarding “QVQLVESGGGLVQAGGSLRLSCAASGSTSYNAMGWYIQAPGKERELVAAISDGGGSTYYADSVKGRFTISRDNAKNTVYLQMNSLKPEDTAVYYCAADTITGDGYWGQGTQVTVSS”, the “polyreactivity (PSR sort gate)” value was “low polyreactivity”.

Take “QVQLVESGGGLVQAGGSLRLSCAASGSTSYVYAMGWYRQAPGKERELVAAISGSGGRTYYADSVKGRFTISRDNAKNTVYLQMNSLKPEDTAVYYCAADYIFRRYPVGGIYDYDYWGQGTQVTVSS”: the “polyreactivity (PSR sort gate)” value is given as “high polyreactivity”.

Turning to “QVQLVESGGGLVQAGGSLRLSCAASGSTSYWYAMGWYRQAPGKESELVATIRSRGGSTSYADSVKGRFTIARDNAKNTVYLQMNSLKPEDTAVNYCNTRKLYQVDYDYLGQGTQVTVSS”, the “polyreactivity (PSR sort gate)” value is given as “high polyreactivity”.

As for “QVQLVESGGGLVQAGGSLRLSCAASGSTVDRYAMGGYRQAPGKERELVAAITSSGGSTYDADSVKGRFTISRDNAKNTVYVQMNSLKPEDTAVYYCNALITYSTDYWGQGTQVTVSS”, the “polyreactivity (PSR sort gate)” value is recorded as “low polyreactivity”.

On to “QVQLVESGGGLVQAGGSLRLSCAASGSTVGHYAMGWYRQAPGKERELVAAISVSGGSTYYADSVKGRFTISRDHAKNTVYLQMNSLKPEDTAVYYCAREYAHLSFLSTSSDYWGQGTQVTVSS”, for which the “polyreactivity (PSR sort gate)” value is listed as “low polyreactivity”.

For the sequence “QVQLVESGGGLVQAGGSLRLSCAASGSTVKTYAMGWYRQAPGKERELVAAISWSGGSTYYADSVKGRFTISRDNAKNTVYLQMNSLKPEDTAVYYCNAGWGYPSPWFIGEYWGQGTQVTVSS”, the “polyreactivity (PSR sort gate)” value is reported as “low polyreactivity”.

On to “QVQLVESGGGLVQAGGSLRLSCAASGSTVYYNAMGWYRQAPGKERELVAAISRSGGRTYYADSVKGRFTISRDNAKNTVYLQMNSLKPEDTAVYYCAADAPGHEYYYWGQGTQVTVSS”, for which the “polyreactivity (PSR sort gate)” value is recorded as “high polyreactivity”.

On to “QVQLVESGGGLVQAGGSLRLSCAASGSTYIANPMGWYRQAPGKEREFLATISRRGGSTYYADSVKGRFTISRDNAKNTVYLQMNSLKPEDTAVYYCAARPLTYIRFRYYYWGQGTQVTVSS”, for which the “polyreactivity (PSR sort gate)” value is “high polyreactivity”.

As for “QVQLVESGGGLVQAGGSLRLSCAASGSTYIDYAMGWYRQAPGKERELVASIRYSGGGTYYADSVKGRFTISRDNAKNTVYFQMNSLKPEDTAVYYCAKDTHLLNEHSGTSREYDYWGQGTQVTVSS”, the “polyreactivity (PSR sort gate)” value is on record as “low polyreactivity”.

Turning to “QVQLVESGGGLVQAGGSLRLSCAASGSTYPGNAMGWYRQAPGNERELVALINDGADTNYADSVKGRFTISRDNAKNTVYLQMNSLKPEDTAVYYCAKRSLYPTYDYWGQGTQVTVSS”, the “polyreactivity (PSR sort gate)” value was “low polyreactivity”.

The record behind these values is the nanobody polyreactivity screen of Harvey et al. (2022).
